Values quoted from earlier work as cited in PMC12489035.

Biological target: APP tail cytoplasmic tail (Homo sapiens) (UniProt P05067)
Sequence (P05067 724-770): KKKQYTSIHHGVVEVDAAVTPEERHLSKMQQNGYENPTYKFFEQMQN

Sequence of AP-4 mu4 subunit (O00189 whole entry): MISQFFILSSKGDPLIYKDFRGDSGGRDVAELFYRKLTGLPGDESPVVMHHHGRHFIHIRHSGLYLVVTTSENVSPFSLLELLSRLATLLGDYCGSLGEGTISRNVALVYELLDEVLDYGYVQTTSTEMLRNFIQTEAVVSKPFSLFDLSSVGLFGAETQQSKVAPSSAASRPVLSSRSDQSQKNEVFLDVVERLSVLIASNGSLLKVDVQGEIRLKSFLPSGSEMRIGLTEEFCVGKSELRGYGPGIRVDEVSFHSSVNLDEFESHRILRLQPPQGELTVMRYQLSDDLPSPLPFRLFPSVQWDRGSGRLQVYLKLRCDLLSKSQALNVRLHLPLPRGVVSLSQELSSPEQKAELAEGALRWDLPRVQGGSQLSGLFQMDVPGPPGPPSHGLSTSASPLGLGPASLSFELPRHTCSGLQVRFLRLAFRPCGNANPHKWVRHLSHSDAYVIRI

Kd: 27.7 µM
Substance: AP-4 mu4 subunit (from UniProt O00189)
